Test results: PMC5121336 (2016)

Target: human LDL (low-density lipoprotein) (human)
Assay: SPR; LDL saturated with ALK1ecto

human LDL (low-density lipoprotein) (human), sequence (P04114 28-4563): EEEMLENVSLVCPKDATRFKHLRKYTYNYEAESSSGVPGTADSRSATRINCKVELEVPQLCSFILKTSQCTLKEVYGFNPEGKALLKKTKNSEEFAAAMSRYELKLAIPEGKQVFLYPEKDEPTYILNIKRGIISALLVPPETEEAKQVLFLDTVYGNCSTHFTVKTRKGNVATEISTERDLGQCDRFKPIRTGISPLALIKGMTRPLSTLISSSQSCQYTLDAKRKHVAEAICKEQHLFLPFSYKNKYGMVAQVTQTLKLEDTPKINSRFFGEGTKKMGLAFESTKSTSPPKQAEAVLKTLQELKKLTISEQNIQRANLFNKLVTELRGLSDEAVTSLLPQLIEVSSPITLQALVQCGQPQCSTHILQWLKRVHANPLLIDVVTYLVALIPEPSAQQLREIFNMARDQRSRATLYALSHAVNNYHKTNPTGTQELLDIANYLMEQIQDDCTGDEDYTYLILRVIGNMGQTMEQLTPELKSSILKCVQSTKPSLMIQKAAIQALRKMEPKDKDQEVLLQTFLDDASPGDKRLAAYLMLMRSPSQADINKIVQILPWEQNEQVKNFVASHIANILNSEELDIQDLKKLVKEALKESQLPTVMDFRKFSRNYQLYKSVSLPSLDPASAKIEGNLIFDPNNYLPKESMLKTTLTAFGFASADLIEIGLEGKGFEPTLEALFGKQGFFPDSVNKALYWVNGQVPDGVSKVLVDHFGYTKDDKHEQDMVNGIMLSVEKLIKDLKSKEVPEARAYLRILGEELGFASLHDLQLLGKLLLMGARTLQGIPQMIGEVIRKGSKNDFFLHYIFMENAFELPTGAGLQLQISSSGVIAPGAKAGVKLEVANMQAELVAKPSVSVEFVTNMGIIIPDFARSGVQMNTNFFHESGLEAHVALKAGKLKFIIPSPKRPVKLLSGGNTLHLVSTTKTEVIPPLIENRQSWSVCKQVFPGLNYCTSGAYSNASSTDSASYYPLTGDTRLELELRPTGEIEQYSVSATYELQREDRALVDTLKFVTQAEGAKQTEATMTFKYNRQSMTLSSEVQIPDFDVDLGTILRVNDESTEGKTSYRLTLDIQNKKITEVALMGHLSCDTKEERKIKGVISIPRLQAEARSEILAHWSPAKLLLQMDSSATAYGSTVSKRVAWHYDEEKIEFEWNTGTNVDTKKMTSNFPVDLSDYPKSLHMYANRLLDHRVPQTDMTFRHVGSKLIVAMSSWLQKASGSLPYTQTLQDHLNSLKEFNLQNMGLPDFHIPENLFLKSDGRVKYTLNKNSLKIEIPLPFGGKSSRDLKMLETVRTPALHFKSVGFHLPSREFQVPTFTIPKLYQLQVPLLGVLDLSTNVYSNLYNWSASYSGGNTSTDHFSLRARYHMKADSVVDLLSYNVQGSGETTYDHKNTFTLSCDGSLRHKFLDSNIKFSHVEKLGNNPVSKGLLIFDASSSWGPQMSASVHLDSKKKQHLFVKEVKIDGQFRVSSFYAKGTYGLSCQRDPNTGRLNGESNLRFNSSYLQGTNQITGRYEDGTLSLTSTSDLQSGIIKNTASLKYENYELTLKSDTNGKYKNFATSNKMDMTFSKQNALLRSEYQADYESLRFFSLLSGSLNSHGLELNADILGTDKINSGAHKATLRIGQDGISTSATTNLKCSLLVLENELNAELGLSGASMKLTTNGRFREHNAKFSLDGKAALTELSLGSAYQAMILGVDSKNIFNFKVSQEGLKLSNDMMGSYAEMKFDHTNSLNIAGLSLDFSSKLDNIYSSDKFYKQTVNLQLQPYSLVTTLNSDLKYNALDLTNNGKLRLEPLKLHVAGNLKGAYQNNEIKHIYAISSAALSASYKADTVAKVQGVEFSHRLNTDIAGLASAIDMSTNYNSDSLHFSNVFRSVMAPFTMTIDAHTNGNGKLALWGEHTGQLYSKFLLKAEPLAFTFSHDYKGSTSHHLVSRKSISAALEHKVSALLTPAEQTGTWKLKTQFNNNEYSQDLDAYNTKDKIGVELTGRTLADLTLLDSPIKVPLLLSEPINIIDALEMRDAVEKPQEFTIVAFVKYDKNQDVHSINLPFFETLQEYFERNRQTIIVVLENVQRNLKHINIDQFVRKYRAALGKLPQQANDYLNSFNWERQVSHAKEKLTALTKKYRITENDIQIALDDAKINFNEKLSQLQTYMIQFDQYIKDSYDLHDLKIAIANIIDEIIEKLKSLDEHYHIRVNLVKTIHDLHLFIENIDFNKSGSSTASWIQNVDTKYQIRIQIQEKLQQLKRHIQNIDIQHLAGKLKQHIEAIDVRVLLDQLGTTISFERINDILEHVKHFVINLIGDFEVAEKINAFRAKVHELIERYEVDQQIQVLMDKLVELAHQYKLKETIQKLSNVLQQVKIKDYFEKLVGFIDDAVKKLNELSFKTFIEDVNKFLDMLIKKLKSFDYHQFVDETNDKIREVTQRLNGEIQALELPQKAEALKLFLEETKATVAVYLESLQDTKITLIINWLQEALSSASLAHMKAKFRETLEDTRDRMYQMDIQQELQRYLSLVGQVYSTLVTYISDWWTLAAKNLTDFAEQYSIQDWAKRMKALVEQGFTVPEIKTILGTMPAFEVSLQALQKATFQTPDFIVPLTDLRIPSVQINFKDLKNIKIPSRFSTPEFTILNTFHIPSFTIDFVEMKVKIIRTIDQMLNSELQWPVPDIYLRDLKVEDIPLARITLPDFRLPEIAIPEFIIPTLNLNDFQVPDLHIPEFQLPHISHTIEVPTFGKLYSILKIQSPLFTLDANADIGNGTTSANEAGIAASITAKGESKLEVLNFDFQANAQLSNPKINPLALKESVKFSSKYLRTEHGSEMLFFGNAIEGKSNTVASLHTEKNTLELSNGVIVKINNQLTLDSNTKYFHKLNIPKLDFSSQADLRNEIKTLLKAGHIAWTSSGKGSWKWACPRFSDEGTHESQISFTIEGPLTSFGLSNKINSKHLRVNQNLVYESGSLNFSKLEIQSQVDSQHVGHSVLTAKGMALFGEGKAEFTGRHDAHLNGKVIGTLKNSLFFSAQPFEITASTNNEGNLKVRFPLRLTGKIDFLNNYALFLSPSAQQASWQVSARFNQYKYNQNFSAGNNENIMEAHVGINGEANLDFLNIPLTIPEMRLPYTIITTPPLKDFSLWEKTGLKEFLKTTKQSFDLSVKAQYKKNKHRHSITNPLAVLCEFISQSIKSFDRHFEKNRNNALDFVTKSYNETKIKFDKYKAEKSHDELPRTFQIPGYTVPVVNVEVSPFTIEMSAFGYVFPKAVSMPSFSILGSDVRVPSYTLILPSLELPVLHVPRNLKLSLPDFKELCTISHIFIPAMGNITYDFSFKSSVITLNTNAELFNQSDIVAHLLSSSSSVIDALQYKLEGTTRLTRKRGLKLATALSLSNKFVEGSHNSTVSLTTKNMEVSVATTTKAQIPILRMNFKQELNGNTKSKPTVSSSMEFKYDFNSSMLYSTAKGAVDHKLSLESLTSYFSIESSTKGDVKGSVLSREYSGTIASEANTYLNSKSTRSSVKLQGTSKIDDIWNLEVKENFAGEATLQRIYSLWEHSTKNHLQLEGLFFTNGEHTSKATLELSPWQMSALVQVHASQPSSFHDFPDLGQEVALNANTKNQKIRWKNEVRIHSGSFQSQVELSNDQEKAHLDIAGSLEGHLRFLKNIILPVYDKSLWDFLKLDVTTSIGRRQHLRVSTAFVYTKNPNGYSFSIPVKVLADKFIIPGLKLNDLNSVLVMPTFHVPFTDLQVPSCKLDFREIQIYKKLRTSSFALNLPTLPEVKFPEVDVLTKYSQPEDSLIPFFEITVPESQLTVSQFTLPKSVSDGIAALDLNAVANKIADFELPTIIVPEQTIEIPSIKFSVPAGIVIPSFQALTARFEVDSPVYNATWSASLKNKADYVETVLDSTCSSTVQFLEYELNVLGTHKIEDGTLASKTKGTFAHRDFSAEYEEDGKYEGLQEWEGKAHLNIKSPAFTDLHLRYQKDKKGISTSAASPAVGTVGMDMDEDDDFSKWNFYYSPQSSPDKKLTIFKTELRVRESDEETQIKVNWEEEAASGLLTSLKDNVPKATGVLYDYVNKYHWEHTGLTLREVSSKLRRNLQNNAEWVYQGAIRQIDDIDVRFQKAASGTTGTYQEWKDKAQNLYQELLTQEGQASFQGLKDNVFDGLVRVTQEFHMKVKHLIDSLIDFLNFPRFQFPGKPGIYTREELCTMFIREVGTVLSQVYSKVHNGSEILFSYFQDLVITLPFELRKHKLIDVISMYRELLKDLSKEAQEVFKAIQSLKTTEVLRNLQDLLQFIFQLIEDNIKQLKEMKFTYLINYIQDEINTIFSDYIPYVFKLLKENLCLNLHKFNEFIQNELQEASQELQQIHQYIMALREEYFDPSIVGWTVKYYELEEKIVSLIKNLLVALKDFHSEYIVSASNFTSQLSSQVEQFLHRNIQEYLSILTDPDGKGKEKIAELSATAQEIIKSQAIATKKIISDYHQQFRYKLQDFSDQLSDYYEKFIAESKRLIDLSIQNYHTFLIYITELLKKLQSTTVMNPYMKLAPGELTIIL

B1: LDLR^ecto-(His)6 (domain or fragment)
chain: not shown
Kd: 2 nM
